We go through three molecules from US20180155451A1 (published 2018).

Common to all, as to assay: SPR (Biacore), antibody captured on chip, FcgR extracellular domain as analyte
Experiment [1] addresses T1, FcgRIIIa F (human, UniProt P08637 17-208).
T1 construct: extracellular domain; also called FcγRIIIa F; not shown: His tag attached to the C terminus
The procedure: (§1) Similarly, H240-AK072 and L73-k0, and H240-BH076 and L73-k0 were each combined to express and prepare the homodimerized antibodies H240-AK072/L73-k0 and H240-BH076/L73-k0. The antibodies were compared for the binding to each FcgR according to the method described in Reference Example 8.
(§2) Analysis of interaction between obj ective antibody and the FcγR was carried out using Biacore T100 (GE Healthcare), Biacore T200, Biacore A100, and Biacore 4000. HBS-EP+ (GE Healthcare) was used as the running buffer, and the measurement temperature was set to 25° C. Chips produced by immobilizing the antigen peptide by the amine coupling method to a Series S sensor Chip CM5 (GE Healthcare), chips produced by allowing preliminarily biotinylated antigen peptides to interact with and immobilize onto a Series S Sensor Chip SA (certified) (GE Healthcare), chips produced by immobilizing Protein L (ACTIGEN, BioVision) to Series S Sencor Chip CM5 (GE Healthcare), or chips produced by immobilizing Protein A/G (Thermo Scientific) to Series S Sencor Chip CM5 (GE Healthcare) were used. Antibodies of interest were captured onto these chips, and allowed to interact to each FcγR diluted with running buffer. To regenerate and repeatedly use the chip, the antibodies captured onto the chip were washed off by reacting 10 mM glycine-HCl, pH 1.5.

Experiment [2] addresses T2, FcgRIIIa V (human, UniProt P08637 17-208).
T2 construct: extracellular domain; also called FcγRIIIa V; not shown: His tag attached to the C terminus
The method, then: as §1, §2

Experiment [3] concerns the target T1, FcgRIIIa F. The procedure:
as §2
The source holds these as a separate data set.

The target in experiment [4] is T3, FcgRIIa H (human, UniProt P12318 34-217).
T3 construct: extracellular domain; also called FcγRIIa H; FcγRIIa type H; not shown: His tag attached to the C terminus
T3 sequence (looked up): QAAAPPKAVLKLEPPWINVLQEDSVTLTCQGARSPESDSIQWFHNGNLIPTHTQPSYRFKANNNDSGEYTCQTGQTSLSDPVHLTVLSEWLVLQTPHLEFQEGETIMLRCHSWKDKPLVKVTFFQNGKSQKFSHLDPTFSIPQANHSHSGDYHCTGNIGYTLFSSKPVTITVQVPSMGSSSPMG
The procedure:
as §2

The target in experiment [5] is T2, FcgRIIIa V. The procedure: as §2
The source holds these as a separate data set.

The target of experiment [6] is T4, FcgRIIb (human, UniProt P31994 43-217).
T4 construct: extracellular domain; Expressed in FreeStyle293 cells and purified; used as analyte in Biacore; also called FcγRIIb; CD32B; not shown: His tag attached to the C terminus
T4 sequence (looked up): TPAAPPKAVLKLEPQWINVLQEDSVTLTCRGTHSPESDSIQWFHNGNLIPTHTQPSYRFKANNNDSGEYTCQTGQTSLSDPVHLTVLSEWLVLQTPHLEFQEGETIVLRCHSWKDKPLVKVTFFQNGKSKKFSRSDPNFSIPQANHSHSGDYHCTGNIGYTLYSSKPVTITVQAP
The method, then:
as §2

Experiment [7] has as its target T5, FcgRIIa R (human, UniProt P12318 34-217).
T5 construct: extracellular domain; also called FcγRIIa R; FcγRIIa type R; not shown: His tag attached to the C terminus
T5 sequence (looked up): T3 sequence (looked up) with H134R
The method, then: as §2

Experiment [8] has as its target T6, FcgRIa (human, UniProt P12314 16-292).
T6 construct: extracellular domain; Expressed in FreeStyle293 cells and purified; used as analyte in Biacore; also called FcγRIa; FcγRI; not shown: His tag attached to the C terminus
The procedure: as §2

Substitutions are numbered along the chain they refer to. In names and notes the source's numbering stands. Read-outs that look alike come from different tables or passages of the source.

T1 sequence (P08637 17-208): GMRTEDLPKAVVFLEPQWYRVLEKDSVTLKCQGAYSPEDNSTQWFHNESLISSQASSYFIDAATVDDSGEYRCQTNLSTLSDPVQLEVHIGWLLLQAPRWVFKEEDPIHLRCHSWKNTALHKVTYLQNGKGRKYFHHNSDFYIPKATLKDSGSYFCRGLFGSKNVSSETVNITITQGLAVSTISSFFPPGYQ
T2 sequence (P08637 17-208 F176V limits assumed): as the sequence (P08637 17-208) above, with F160V counted along it
T6 sequence (P12314 16-292): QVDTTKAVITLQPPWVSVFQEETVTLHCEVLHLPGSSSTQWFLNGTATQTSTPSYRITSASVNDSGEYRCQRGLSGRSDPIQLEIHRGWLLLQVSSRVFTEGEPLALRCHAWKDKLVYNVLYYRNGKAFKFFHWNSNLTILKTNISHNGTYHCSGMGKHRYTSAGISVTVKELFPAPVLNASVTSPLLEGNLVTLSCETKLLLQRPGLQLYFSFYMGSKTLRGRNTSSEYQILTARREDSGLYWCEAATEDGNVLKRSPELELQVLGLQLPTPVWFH

B1: H240-AK072/L73-k0 (antibody, human IgG1, kappa)
heavy: QDQLVQSGAEVKKPGASVKVSCKASGFNIKDTYIQWVRQAPGQGLEWMGRIDPLRKQTKYREKFEGRVTITADTSTNTAYMELSSLRSEDTAVYYCVRSGREFDYWGQGTLVTVSSASTKGPSVFPLAPSSKSTSGGTAALGCLVKDYFPEPVTVSWNSGALTSGVHTFPAVLQSSGLYSLSSVVTVPSSSLGTQTYICNVNHKPSNTKVDKKVEPKSCDKTHTCPPCPAPEYYWGPSVFLFPPKPKDTLMISRTPEVTCVVVDVSDEEPEVKFNWYVDGVEVHNAKTKPREEQYNATYRVVSVLTVLHQDWLNGKEYKCKVSNKALPAPIEKTISKAKGQPREPQVYTLPPSRKEMTKNQVSLTCLVKGFYPSDIAVEWESNGQPENNYKTTPPVLDSDGSFFLYSKLTVDKSRWQQGNVFSCSVMHEALHNRYTQKSLSLSP
light: DIQMTQSPSSLSASVGDRVTITCRASQDIHKYIAWYQQKPGQAPRLLIQYTSTLQPGVPSRFSGSGSGTDYTFTISSLQPEDIATYYCLQYEQLRTFGGGTKVEIKRTVAAPSVFIFPPSDEQLKSGTASVVCLLNNFYPREAKVQWKVDNALQSGNSQESVTEQDSKDSTYSLSSTLTLSKADYEKHKVYACEVTHQGLSSPVTKSFNRGEC
notes: Homodimerized anti-EREG IgG1: H240-A5E (D356K/H435R) with L234Y/L235Y/G236W/H268D/D270E/S298A in both H chains
What is called Kd is the free concentration of one partner at which half of the binding sites on the other are occupied at equilibrium, for simple one-to-one binding. Regarding B1, the Kd in experiment [1] is 0.3 µM; in experiment [2], 0.029 µM.

B2: H240-AK072/H240-BH076/L73-k0 (antibody, human IgG1, kappa)
heavy 1: B1 heavy
heavy 2: QDQLVQSGAEVKKPGASVKVSCKASGFNIKDTYIQWVRQAPGQGLEWMGRIDPLRKQTKYREKFEGRVTITADTSTNTAYMELSSLRSEDTAVYYCVRSGREFDYWGQGTLVTVSSASTKGPSVFPLAPSSKSTSGGTAALGCLVKDYFPEPVTVSWNSGALTSGVHTFPAVLQSSGLYSLSSVVTVPSSSLGTQTYICNVNHKPSNTKVDKKVEPKSCDKTHTCPPCPAPELLGGPSVFLFPPKPKDTLMISRTPEVTCVVVDVSHEEPEVKFNWYVDGVEVHNAKTKPREEQYNSTYRVVSVLTVLHQDWLNGKEYKCKVSNDALPMPIEETISKAKGQPREPQVYTLPPSREEMTKNQVSLTCLVKGFYPSDIAVEWESNGQPENNYKTTPPVLDSDGSFFLYSKLTVDKSRWQQGNVFSCSVMHEALHNHYTQESLSLSP
light: B1 light
notes: Heterodimerized anti-EREG IgG1 made with D356K/H435R and K439E in place of knobs-into-holes
Take B2: the dissociation constant (Kd) in experiment [1] was found to be 0.0037 µM; in experiment [2], 0.00098 µM; in experiment [3] it was 0.0037 µM; in experiment [4] it was 0.13 µM; in experiment [5] it was 0.00098 µM; in experiment [6] it was 2.9 µM. The Kd stood at 0.46 µM in experiment [7] and 0.00024 µM in experiment [8].

B3: H240-BH076/L73-k0 (antibody, human IgG1, kappa)
heavy: B2 heavy 2
light: B1 light
notes: Homodimerized anti-EREG IgG1: H240-B3E (K439E) with D270E/K326D/A330M/K334E in both H chains
For the molecule B3, the Kd was found to be 0.026 µM in experiment [1] and 0.0053 µM in experiment [2].
